Results taken from the supplement of paper PMC9233669.
This sample holds only a part of the variants without activity.

Assays:
biotinyl-Leu-oxazolone = experiment: self-aminoacylation, catalytic enhancement (BLO) (fold over background); higher = more active; k-Seq, kA / k0A0; sequences stand for … in GGGAAUGGAUCCACAUCUACGAAUUC…UUCACUGCAGACUUGACGAAGCUG
In short: (§1)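 Mutagenized RNA pools with a 21-nt variable region (0.43 μM) were reacted with each biotinyl-aminoacyl-oxazolone at 2–1250 μM for 90 minutes at room temperature, in 50 μL HEPES/NaCl/KCl/MgCl2/CaCl2 buffer containing 5% acetonitrile at pH 6.9–7.0. RNA captured on streptavidin was quantified by triplicate qPCR and by Illumina sequencing. The fraction reacted for each sequence was fit to a pseudo-first-order model with bootstrapping, and catalytic enhancement is the median kA divided by the uncatalyzed rate, taken as the low-activity peak of a bimodal Gaussian fit.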

biotinyl-Val-oxazolone = experiment: self-aminoacylation, catalytic enhancement (BVO) (fold over background); higher = more active; k-Seq, kA / k0A0; sequences stand for … in GGGAAUGGAUCCACAUCUACGAAUUC…UUCACUGCAGACUUGACGAAGCUG
In short: as §1

biotinyl-Ile-oxazolone = experiment: self-aminoacylation, catalytic enhancement (BIO) (fold over background); higher = more active; k-Seq, kA / k0A0; sequences stand for … in GGGAAUGGAUCCACAUCUACGAAUUC…UUCACUGCAGACUUGACGAAGCUG
In short: as §1

biotinyl-Phe-oxazolone = experiment: self-aminoacylation, catalytic enhancement (BFO) (fold over background); higher = more active; k-Seq, kA / k0A0; sequences stand for … in GGGAAUGGAUCCACAUCUACGAAUUC…UUCACUGCAGACUUGACGAAGCUG
In short: as §1

biotinyl-Trp-oxazolone = experiment: self-aminoacylation, catalytic enhancement (BWO) (fold over background); higher = more active; k-Seq, kA / k0A0; sequences stand for … in GGGAAUGGAUCCACAUCUACGAAUUC…UUCACUGCAGACUUGACGAAGCUG
In short: as §1

biotinyl-Met-oxazolone = experiment: self-aminoacylation, catalytic enhancement (BMO) (fold over background); higher = more active; k-Seq, kA / k0A0; sequences stand for … in GGGAAUGGAUCCACAUCUACGAAUUC…UUCACUGCAGACUUGACGAAGCUG
In short: as §1

## AUUCACCUAGGACGUCGGGUG [Fam2.2 aminoacylation ribozyme variant]
biotinyl-Leu-oxazolone
  self-aminoacylation: 1.91
biotinyl-Val-oxazolone
  self-aminoacylation: 1.88
biotinyl-Ile-oxazolone
  self-aminoacylation: 1.66
biotinyl-Phe-oxazolone
  self-aminoacylation: 9.18
biotinyl-Trp-oxazolone
  self-aminoacylation: 1.42
biotinyl-Met-oxazolone
  self-aminoacylation: 1.91

## AUUCACCUAGGCCAUCCGGUG [Fam2.2 aminoacylation ribozyme variant]
biotinyl-Leu-oxazolone
  self-aminoacylation: 5.83
biotinyl-Val-oxazolone
  self-aminoacylation: 4.6
biotinyl-Ile-oxazolone
  self-aminoacylation: 4.25
biotinyl-Phe-oxazolone
  self-aminoacylation: 32
biotinyl-Trp-oxazolone
  self-aminoacylation: 5.92
biotinyl-Met-oxazolone
  self-aminoacylation: 5.26

## AUUCACCUAGGCCAUCGCGUG [Fam2.2 aminoacylation ribozyme variant]
biotinyl-Leu-oxazolone
  self-aminoacylation: 6.31
biotinyl-Val-oxazolone
  self-aminoacylation: 4.15
biotinyl-Ile-oxazolone
  self-aminoacylation: 4.69
biotinyl-Phe-oxazolone
  self-aminoacylation: 31.6
biotinyl-Trp-oxazolone
  self-aminoacylation: 3.85
biotinyl-Met-oxazolone
  self-aminoacylation: 4.45

## AUUCACCUAGGCCAUCGGGUA [Fam2.2 aminoacylation ribozyme variant]
biotinyl-Leu-oxazolone
  self-aminoacylation: 3.81
biotinyl-Val-oxazolone
  self-aminoacylation: 2.21
biotinyl-Ile-oxazolone
  self-aminoacylation: 2.42
biotinyl-Phe-oxazolone
  self-aminoacylation: 16.4
biotinyl-Trp-oxazolone
  self-aminoacylation: 3.52
biotinyl-Met-oxazolone
  self-aminoacylation: 3.31

## AUUCACCUAGGCCAUUGGGUG [Fam2.2 aminoacylation ribozyme variant]
biotinyl-Leu-oxazolone
  self-aminoacylation: 5.31
biotinyl-Val-oxazolone
  self-aminoacylation: 2.85
biotinyl-Ile-oxazolone
  self-aminoacylation: 3.11
biotinyl-Phe-oxazolone
  self-aminoacylation: 34.9
biotinyl-Trp-oxazolone
  self-aminoacylation: 3.71
biotinyl-Met-oxazolone
  self-aminoacylation: 4.09

## AUUCACCUAGGCCCUCGGGUG [Fam2.2 aminoacylation ribozyme variant]
biotinyl-Leu-oxazolone
  self-aminoacylation: 3.88
biotinyl-Val-oxazolone
  self-aminoacylation: 3.1
biotinyl-Ile-oxazolone
  self-aminoacylation: 2.81
biotinyl-Phe-oxazolone
  self-aminoacylation: 24.2
biotinyl-Trp-oxazolone
  self-aminoacylation: 3.75
biotinyl-Met-oxazolone
  self-aminoacylation: 3.26

## AUUCACCUAGGCCUUCGGGUG [Fam2.2 aminoacylation ribozyme variant]
biotinyl-Leu-oxazolone
  self-aminoacylation: 5.19
biotinyl-Val-oxazolone
  self-aminoacylation: 3.43
biotinyl-Ile-oxazolone
  self-aminoacylation: 2.49
biotinyl-Phe-oxazolone
  self-aminoacylation: 19.9
biotinyl-Trp-oxazolone
  self-aminoacylation: 3.83
biotinyl-Met-oxazolone
  self-aminoacylation: 3.67

## AUUCACCUAGGCUAUCGGGUG [Fam2.2 aminoacylation ribozyme variant]
biotinyl-Leu-oxazolone
  self-aminoacylation: 4.84
biotinyl-Val-oxazolone
  self-aminoacylation: 3.06
biotinyl-Ile-oxazolone
  self-aminoacylation: 2.43
biotinyl-Phe-oxazolone
  self-aminoacylation: 21.8
biotinyl-Trp-oxazolone
  self-aminoacylation: 3.79
biotinyl-Met-oxazolone
  self-aminoacylation: 3.76

## AUUCACCUAGGGCAUCCGGUG [Fam2.2 aminoacylation ribozyme variant]
biotinyl-Leu-oxazolone
  self-aminoacylation: 12.6
biotinyl-Val-oxazolone
  self-aminoacylation: 8.74
biotinyl-Ile-oxazolone
  self-aminoacylation: 10.5
biotinyl-Phe-oxazolone
  self-aminoacylation: 54.4
biotinyl-Trp-oxazolone
  self-aminoacylation: 8.38
biotinyl-Met-oxazolone
  self-aminoacylation: 10.7

## AUUCACCUAGGGCAUCGGGUA [Fam2.2 aminoacylation ribozyme variant]
biotinyl-Leu-oxazolone
  self-aminoacylation: 2.34
biotinyl-Val-oxazolone
  self-aminoacylation: 3.46
biotinyl-Ile-oxazolone
  self-aminoacylation: 2.89
biotinyl-Phe-oxazolone
  self-aminoacylation: 2.02
biotinyl-Trp-oxazolone
  self-aminoacylation: 3.3
biotinyl-Met-oxazolone
  self-aminoacylation: 3.25

## AUUCACCUAGGGCGUCGGGUG [Fam2.2 aminoacylation ribozyme variant]
biotinyl-Leu-oxazolone
  self-aminoacylation: 2.92
biotinyl-Val-oxazolone
  self-aminoacylation: 1.84
biotinyl-Ile-oxazolone
  self-aminoacylation: 1.73
biotinyl-Phe-oxazolone
  self-aminoacylation: 9.76
biotinyl-Trp-oxazolone
  self-aminoacylation: 1.83
biotinyl-Met-oxazolone
  self-aminoacylation: 2.21

## AUUCACCUAGGUAAACGGGUG [Fam2.2 aminoacylation ribozyme variant]
biotinyl-Leu-oxazolone
  self-aminoacylation: 4.47
biotinyl-Val-oxazolone
  self-aminoacylation: 2.27
biotinyl-Ile-oxazolone
  self-aminoacylation: 1.97
biotinyl-Phe-oxazolone
  self-aminoacylation: 22.9
biotinyl-Trp-oxazolone
  self-aminoacylation: 3.84
biotinyl-Met-oxazolone
  self-aminoacylation: 3.77

## AUUCACCUAGGUAAUAGGGUG [Fam2.2 aminoacylation ribozyme variant]
biotinyl-Leu-oxazolone
  self-aminoacylation: 5.63
biotinyl-Val-oxazolone
  self-aminoacylation: 2.43
biotinyl-Ile-oxazolone
  self-aminoacylation: 2.7
biotinyl-Phe-oxazolone
  self-aminoacylation: 22
biotinyl-Trp-oxazolone
  self-aminoacylation: 4.25
biotinyl-Met-oxazolone
  self-aminoacylation: 4.95

## AUUCACCUAGGUAAUCGGGUA [Fam2.2 aminoacylation ribozyme variant]
biotinyl-Leu-oxazolone
  self-aminoacylation: 1.33
biotinyl-Val-oxazolone
  self-aminoacylation: 1.47
biotinyl-Ile-oxazolone
  self-aminoacylation: 1.39
biotinyl-Phe-oxazolone
  self-aminoacylation: 5.56
biotinyl-Trp-oxazolone
  self-aminoacylation: 1.8
biotinyl-Met-oxazolone
  self-aminoacylation: 1.55

## AUUCACCUAGGUAAUCGGUUG [Fam2.2 aminoacylation ribozyme variant]
biotinyl-Leu-oxazolone
  self-aminoacylation: 0.91
biotinyl-Val-oxazolone
  self-aminoacylation: 0.687
biotinyl-Ile-oxazolone
  self-aminoacylation: 0.71
biotinyl-Phe-oxazolone
  self-aminoacylation: 0.536
biotinyl-Trp-oxazolone
  self-aminoacylation: 0.967
biotinyl-Met-oxazolone
  self-aminoacylation: 0.735

## AUUCACCUAGGUAUUCGGGUG [Fam2.2 aminoacylation ribozyme variant]
biotinyl-Leu-oxazolone
  self-aminoacylation: 5.02
biotinyl-Val-oxazolone
  self-aminoacylation: 2.59
biotinyl-Ile-oxazolone
  self-aminoacylation: 2.81
biotinyl-Phe-oxazolone
  self-aminoacylation: 21.8
biotinyl-Trp-oxazolone
  self-aminoacylation: 3.35
biotinyl-Met-oxazolone
  self-aminoacylation: 3.34

## AUUCACCUAGGUCAACGGGUA [Fam2.2 aminoacylation ribozyme variant]
biotinyl-Leu-oxazolone
  self-aminoacylation: 1.29
biotinyl-Val-oxazolone
  self-aminoacylation: 1.08
biotinyl-Ile-oxazolone
  self-aminoacylation: 1.41
biotinyl-Phe-oxazolone
  self-aminoacylation: 0.801
biotinyl-Trp-oxazolone
  self-aminoacylation: 1.83
biotinyl-Met-oxazolone
  self-aminoacylation: 1.12

## AUUCACCUAGGUCAACGGGUC [Fam2.2 aminoacylation ribozyme variant]
biotinyl-Leu-oxazolone
  self-aminoacylation: 0.807
biotinyl-Val-oxazolone
  self-aminoacylation: 1.07
biotinyl-Ile-oxazolone
  self-aminoacylation: 0.899
biotinyl-Phe-oxazolone
  self-aminoacylation: 0.507
biotinyl-Trp-oxazolone
  self-aminoacylation: 0.902
biotinyl-Met-oxazolone
  self-aminoacylation: 0.915

## AUUCACCUAGGUCAAGGGGUG [Fam2.2 aminoacylation ribozyme variant]
biotinyl-Leu-oxazolone
  self-aminoacylation: 1.41
biotinyl-Val-oxazolone
  self-aminoacylation: 1.3
biotinyl-Ile-oxazolone
  self-aminoacylation: 1.37
biotinyl-Phe-oxazolone
  self-aminoacylation: 4.67
biotinyl-Trp-oxazolone
  self-aminoacylation: 1.3
biotinyl-Met-oxazolone
  self-aminoacylation: 1.43

## AUUCACCUAGGUCAAUGGGUG [Fam2.2 aminoacylation ribozyme variant]
biotinyl-Leu-oxazolone
  self-aminoacylation: 2.23
biotinyl-Val-oxazolone
  self-aminoacylation: 1.38
biotinyl-Ile-oxazolone
  self-aminoacylation: 1.42
biotinyl-Phe-oxazolone
  self-aminoacylation: 6.93
biotinyl-Trp-oxazolone
  self-aminoacylation: 1.65
biotinyl-Met-oxazolone
  self-aminoacylation: 1.75

## AUUCACCUAGGUCACCGCGUG [Fam2.2 aminoacylation ribozyme variant]
biotinyl-Leu-oxazolone
  self-aminoacylation: 18.1
biotinyl-Val-oxazolone
  self-aminoacylation: 6.86
biotinyl-Ile-oxazolone
  self-aminoacylation: 7.2
biotinyl-Phe-oxazolone
  self-aminoacylation: 85.2
biotinyl-Trp-oxazolone
  self-aminoacylation: 10.9
biotinyl-Met-oxazolone
  self-aminoacylation: 12.6

## AUUCACCUAGGUCACCGGGGG [Fam2.2 aminoacylation ribozyme variant]
biotinyl-Leu-oxazolone
  self-aminoacylation: 3.12
biotinyl-Val-oxazolone
  self-aminoacylation: 3.51
biotinyl-Ile-oxazolone
  self-aminoacylation: 3.62
biotinyl-Phe-oxazolone
  self-aminoacylation: 21.4
biotinyl-Trp-oxazolone
  self-aminoacylation: 4.38
biotinyl-Met-oxazolone
  self-aminoacylation: 3.37

## AUUCACCUAGGUCACCGUGUG [Fam2.2 aminoacylation ribozyme variant]
biotinyl-Leu-oxazolone
  self-aminoacylation: 1.48
biotinyl-Val-oxazolone
  self-aminoacylation: 1.33
biotinyl-Ile-oxazolone
  self-aminoacylation: 1.13
biotinyl-Phe-oxazolone
  self-aminoacylation: 4.55
biotinyl-Trp-oxazolone
  self-aminoacylation: 1.24
biotinyl-Met-oxazolone
  self-aminoacylation: 1.33

## AUUCACCUAGGUCAGCCGGUG [Fam2.2 aminoacylation ribozyme variant]
biotinyl-Leu-oxazolone
  self-aminoacylation: 11.3
biotinyl-Val-oxazolone
  self-aminoacylation: 5.3
biotinyl-Ile-oxazolone
  self-aminoacylation: 5.17
biotinyl-Phe-oxazolone
  self-aminoacylation: 61.6
biotinyl-Trp-oxazolone
  self-aminoacylation: 6.47
biotinyl-Met-oxazolone
  self-aminoacylation: 7.35

## AUUCACCUAGGUCAGCGAGUG [Fam2.2 aminoacylation ribozyme variant]
biotinyl-Leu-oxazolone
  self-aminoacylation: 6.37
biotinyl-Val-oxazolone
  self-aminoacylation: 3.34
biotinyl-Ile-oxazolone
  self-aminoacylation: 3.44
biotinyl-Phe-oxazolone
  self-aminoacylation: 25.3
biotinyl-Trp-oxazolone
  self-aminoacylation: 5.84
biotinyl-Met-oxazolone
  self-aminoacylation: 4.93

## AUUCACCUAGGUCAUCAGCUG [Fam2.2 aminoacylation ribozyme variant]
biotinyl-Leu-oxazolone
  self-aminoacylation: 0.804
biotinyl-Val-oxazolone
  self-aminoacylation: 0.757
biotinyl-Ile-oxazolone
  self-aminoacylation: 0.757
biotinyl-Phe-oxazolone
  self-aminoacylation: 0.631
biotinyl-Trp-oxazolone
  self-aminoacylation: 0.477
biotinyl-Met-oxazolone
  self-aminoacylation: 0.806
